Target: AMPA glutamate receptor subunit GluA1 (mouse (endogenous in primary hippocampal neurons)) (UniProt P23818)
Assay: co-IP; endogenous proteins in lysates of hippocampal neurons treated with vehicle (CTR) or IPA (insulin 20 nM + palmitic acid 0.2 mM); IP buffer KCl 50 mM, Tris-HCl 50 mM pH 8, EDTA 10 mM, 1% Nonidet P-40; specific antibody or IgG (negative control) with protein G-sepharose 4B, 6 h at 4 °C; six washes; immunoblot

Chain of UniProt P23818 (P23818 19-907): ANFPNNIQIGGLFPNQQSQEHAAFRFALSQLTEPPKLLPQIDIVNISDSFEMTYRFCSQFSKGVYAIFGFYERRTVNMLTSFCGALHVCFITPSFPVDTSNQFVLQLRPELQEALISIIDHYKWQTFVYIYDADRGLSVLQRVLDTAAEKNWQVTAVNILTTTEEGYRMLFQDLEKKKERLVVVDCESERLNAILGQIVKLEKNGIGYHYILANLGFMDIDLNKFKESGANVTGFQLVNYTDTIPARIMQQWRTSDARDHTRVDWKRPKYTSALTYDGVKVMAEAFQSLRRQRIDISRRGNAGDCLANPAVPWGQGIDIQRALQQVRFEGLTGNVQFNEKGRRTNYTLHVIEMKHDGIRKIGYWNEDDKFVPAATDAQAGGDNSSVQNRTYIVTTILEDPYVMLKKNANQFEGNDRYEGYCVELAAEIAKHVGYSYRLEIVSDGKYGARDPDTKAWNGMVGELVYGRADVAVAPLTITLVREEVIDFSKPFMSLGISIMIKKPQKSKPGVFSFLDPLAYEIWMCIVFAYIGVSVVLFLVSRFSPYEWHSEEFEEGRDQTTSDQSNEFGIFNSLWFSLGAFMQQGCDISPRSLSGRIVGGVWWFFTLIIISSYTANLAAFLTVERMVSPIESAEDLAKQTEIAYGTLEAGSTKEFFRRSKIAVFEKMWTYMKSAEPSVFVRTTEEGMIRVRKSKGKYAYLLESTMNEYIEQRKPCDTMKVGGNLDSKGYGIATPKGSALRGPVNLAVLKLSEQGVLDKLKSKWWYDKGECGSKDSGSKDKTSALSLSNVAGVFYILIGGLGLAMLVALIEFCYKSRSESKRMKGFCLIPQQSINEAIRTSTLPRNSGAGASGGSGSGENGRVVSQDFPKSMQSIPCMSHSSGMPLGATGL

change of the co-precipitated amount after IPA against vehicle control: -74%
Substance: actin (from UniProt P60710 1-375) (natural protein)

From article PMC5722929
